Laboratory results taken from patent US20040081647A1 (published 2004).

Target: T1, human TNFα fusion protein with an N-terminal S-Tag (human, UniProt P01375 77-233)
T1 construct: Constructed, expressed and purified by the applicants; also called S-TNF; not shown: 15 amino acid S-Tag peptide (Novagen)
Experiment: indirect ELISA: sp55 from conditioned media captured on Ni-NTA wells, S-TNF at 1 µg/mL, S-protein-HRP, absorbance at 370 nm

T1 sequence (P01375 77-233): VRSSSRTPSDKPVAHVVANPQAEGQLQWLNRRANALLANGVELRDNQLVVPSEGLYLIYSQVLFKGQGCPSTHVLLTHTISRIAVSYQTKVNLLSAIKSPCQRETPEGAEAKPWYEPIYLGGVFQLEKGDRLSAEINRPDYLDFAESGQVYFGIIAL

fold elevation of S-TNF binding over non-specific binding in control samples: 3 fold
B1: sp55 address domain (human TNFR-1 ecto-domain residues 30-211) with C-terminal myc and His6 tags (receptor)
chain: DAAQPARRAVRSLVPHLGDREKRDSVCPQGKYIHPQNNSICCTKCHKGTYLYNDCPGPGQDTDCRECESGSFTASENHLRHCLSCSKCRKEMGQVEISSCTVDRDTVCGCRKNQYRHYWSENLFQCFNCSLCLNGTVHLSCQEKQNTVCTCHAGFFLRENECVSCSNCKKSLECTKLCLPQIENVKGTEDSGTTRGGPEQKLISEEDLNSAVDHHHHHH
notes: also called p55FL-myc-his; p55FL
